Measured values as given in patent US20200165333A1 (University of Pennsylvania, published 2020).

Experiments:
[1] = biological target: T1, human platelet factor 4 (PF4) (human, UniProt P02776 32-101); experiment: SPR (Biacore), human PF4 immobilized on CM5 chip; antibody expressed in expi-CHO cells
T1 construct: Immobilized on a CM5 chip (Biacore) or on an ELISA plate; also called human PF4
T1 sequence (looked up): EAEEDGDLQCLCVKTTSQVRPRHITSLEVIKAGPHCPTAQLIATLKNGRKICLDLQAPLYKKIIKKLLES
Procedure: (§1) The binding affinity of the mammalian-cell-expressed RTO antibodies to human PF4 immobilized on the surface of a CM5 chip was evaluated using Biacore technology. The humanized antibody (huLight, huHeavy) binds to human PF4 at nM levels (Table 1), which is almost identical to the hybridoma-expressed and mammalian-cell-expressed parental antibody mRTO (mLight, mHeavy).

[2] = biological target: T1, human platelet factor 4 (PF4); experiment: SPR (Biacore), human PF4 immobilized on CM5 chip; antibody expressed in 293T cells
Procedure: as §1

Kd [1]: 2 nM
Kd [2]: 0.75 nM
B1: humanized RTO antibody (huLight, huHeavy) (antibody, V domains shown)
VH: EVQLVESGGGLVQPGGSLRLSCAASGFAFSRYDMSWVRQAPGKGLEWVATITSGDNYTYYPDSVKGRFTISRDNSKNTLYLQMNSLRAEDTAVYYCTRQGLLYYAMDYWGQGTLVTVSS
VL: DIQMTQSPSSLSASVGDRVTISCSASQGINNYLSWYRQKPGKAPKLLIYYTSSLHSGVPSRFSGSGSGTDFTLTISSLQPEDFATYFCQQFSKLPYTFGGGTKVEIKR
notes: Tested as expressed in 293T and in expi-CHO cells; also called huRTO; HuRTO
